Data taken from patent publication US20210132079A1, “ANTIBODY” (UCB Biopharma SRL, priority 2015, published 2021).

Key:
[1] = biological target: T1, Mouse TNFα (Mus musculus, UniProt P06804); experiment: BIAcore surface plasmon resonance, captured IgG, mouse TNFα +/− test compound; type: binding
T1 construct: made in house
T1 sequence (P06804 80-235 limits assumed): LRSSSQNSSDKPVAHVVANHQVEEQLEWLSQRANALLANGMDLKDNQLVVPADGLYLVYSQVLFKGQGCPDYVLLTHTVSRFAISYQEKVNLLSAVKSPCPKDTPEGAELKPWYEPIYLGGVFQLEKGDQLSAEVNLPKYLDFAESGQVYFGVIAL
Experimental: (§1) Surface plasmon resonance was performed at 25° C. using a BIAcore T200 (GE Healthcare). Anti-Mouse Fc (Jackson 115-006-071) was immobilised on a […] Sensor Chip (GE Healthcare) via amine coupling chemistry to a capture level of 6000 response units. HBS-EP buffer (10 mM HEPES pH 7.4, 0.15 M NaCl, 3 mM EDTA, 0.05% (v/v) surfactant P20—GE Healthcare)+1% DMSO was used as the running buffer.
(§2) The surface was regenerated at a flow-rate of […] by a 60 s injection of 40 mM HCl×2 and a 30 s 5 mM NaOH. Double referenced background subtracted binding curves were analysed using the T200 Evaluation software (version 1.0) following standard procedures. Kinetic parameters were determined from the fitting algorithm.

[2] = biological target: human TNFα complexed with compound (1) (Homo sapiens, UniProt P01375); experiment: Size exclusion chromatography (HPLC) of mouse Fab with TNFα-compound complex; type: binding; conditions: Fab at 0.5×-2× molar excess
[3] = biological target: T2, Human TNFα (Homo sapiens, UniProt P01375); experiment: BIAcore surface plasmon resonance, captured IgG, human TNFα +/− test compound; type: binding; parameters: Soluble form of human TNFα; made in house
Experimental: as §1, §2
Target sequence in this assay (P01375 with tags, fused parts or gaps): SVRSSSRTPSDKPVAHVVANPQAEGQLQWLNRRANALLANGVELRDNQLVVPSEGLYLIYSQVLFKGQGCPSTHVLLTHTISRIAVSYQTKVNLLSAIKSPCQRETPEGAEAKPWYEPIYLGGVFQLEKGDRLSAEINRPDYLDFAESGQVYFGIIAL

[4] = tested on: membrane TNFα; experiment: FACS assay with engineered NS0 cell line overexpressing membrane TNFα; type: cell-based; conditions: Fab fragments; NS0 cells incubated with compound (1) or DMSO control
Experimental: An engineered NS0 cell line, which overexpresses membrane TNFα, due to knock-out of the TACE cleavage site was incubated with 0.001-10 μM compound (1) or 0.1% DMSO for 1 h at 37° C. Cells were washed, fixed and stained with antibody Fab fragments at 0.01 or 0.1 μg/ml for 1 hour on ice. (Secondary antibody was anti-mouse Fab-DyeLight488 from Jackson ImmunoResearch).
There is no staining with the DMSO controls.

[5] = biological target: T2, Human TNFα; experiment: FACS assay with HEK Jumpin cells overexpressing TNF-RI, receptor-bound TNFα; type: cell-based; parameters: host or cells: HEK Jumpin cells (carry the TNF-RI; conditions: antibody at 1 and 10 μg/ml; TNFα pre-incubated with compound (1) or DMSO control
Experimental: HEK cells were trypsinised and incubated for 2 h in medium to allow recovery of digested TNFRI levels.
Target sequence in this assay (P01375 77-233 limits assumed): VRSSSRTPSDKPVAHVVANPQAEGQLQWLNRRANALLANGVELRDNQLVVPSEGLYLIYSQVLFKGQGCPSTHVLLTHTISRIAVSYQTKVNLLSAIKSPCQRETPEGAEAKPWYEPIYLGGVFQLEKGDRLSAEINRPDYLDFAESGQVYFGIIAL
Target sequence in this assay (P19438 22-455 partner limits assumed): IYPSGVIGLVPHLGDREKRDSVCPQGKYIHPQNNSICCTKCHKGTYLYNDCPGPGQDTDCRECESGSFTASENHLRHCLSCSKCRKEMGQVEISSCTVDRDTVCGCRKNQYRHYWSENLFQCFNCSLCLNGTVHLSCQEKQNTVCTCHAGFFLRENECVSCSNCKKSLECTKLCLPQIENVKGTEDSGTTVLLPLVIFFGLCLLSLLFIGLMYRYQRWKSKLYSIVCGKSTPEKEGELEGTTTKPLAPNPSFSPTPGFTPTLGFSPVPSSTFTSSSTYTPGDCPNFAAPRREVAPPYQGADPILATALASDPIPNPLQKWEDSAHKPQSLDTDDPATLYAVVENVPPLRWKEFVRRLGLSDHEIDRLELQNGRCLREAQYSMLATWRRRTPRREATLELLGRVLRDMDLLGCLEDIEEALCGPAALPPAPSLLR

Sequence of membrane TNFα (P01375 89-233 limits assumed): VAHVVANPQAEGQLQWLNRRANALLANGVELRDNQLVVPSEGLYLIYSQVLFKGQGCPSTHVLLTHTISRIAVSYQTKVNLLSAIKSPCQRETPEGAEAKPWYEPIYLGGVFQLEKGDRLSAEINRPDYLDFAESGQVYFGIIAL
Sequence of human TNFα complexed with compound (1) (P01375 77-233 limits assumed, one chain of several): as the sequence (P01375 77-233 limits assumed) above

B1: CA185_01979: rat-derived conformation-selective antibody to compound-bound TNFα; LCVR SEQ ID NO: 22, HCVR SEQ ID NO: 23 (antibody, V domains shown)
VH: EVHLVESGPGLVKPSQSLSLTCSVTGYSITNSYWDWIRKFPGNKMEWMGYINYSGSTGYNPSLKSRISISRDTSNNQFFLQLNSITTEDTATYYCARGTYGYNAYHFDYWGRGVMVTVSS
VL: DIQMTQSPASLSASLEEIVTITCQASQDIGNWLSWYQQKPGKSPHLLIYGTTSLADGVPSRFSGSRSGTQYSLKISGLQVADIGIYVCLQAYSTPFTFGSGTKLEIK
modifications: HCVR of 1979; DIQMTQSPASLSASLEEIVTITCQASQDIGNWLSWYQQKPGKSPHLLIYGTTSLADGVPSRFSGS RSGTQYSLKISGLQVADIGIYVCLQAYSTPFTFGSGTKLEIK
For B1, which Kd ([1]; Mouse TNFα + compound (1)) is on record?
Its Kd is 0.38 nM.

And the ka ([1]; Mouse TNFα + compound (1))?
Its ka is 160000 M⁻¹ s⁻¹.

And the kd ([1]; Mouse TNFα + compound (1))?
Its kd is 6.3e-05 s⁻¹.

And the ka ([1]; Mouse TNFα + compound (2))?
The ka was 190000 M⁻¹ s⁻¹.

And the kd ([1]; Mouse TNFα + compound (2))?
Its kd is 3.5e-05 s⁻¹.

And the Kd ([1]; Mouse TNFα apo)?
Its Kd is 27 nM.

What about the ka ([1]; Mouse TNFα apo) of the same molecule?
Its ka is 72000 M⁻¹ s⁻¹.

What about the kd ([1]; Mouse TNFα apo) of the same molecule?
Its kd is 0.002 s⁻¹.

And the “stoichiometry of Fab binding to TNFα trimer” value [2]?
Its value is 1 Fab: 1 TNFα trimer.

And the ka ([3]; Human TNFα + compound (1))?
Its ka is 470000 M⁻¹ s⁻¹.

What about the kd ([3]; Human TNFα + compound (1)) of the same molecule?
Its kd is 1.6e-05 s⁻¹.

What about the ka ([3]; Human TNFα + compound (2)) of the same molecule?
The ka was 570000 M⁻¹ s⁻¹.

And the kd ([3]; Human TNFα + compound (2))?
The kd was 3.3e-05 s⁻¹.

What about the ka ([3]; Human TNFα apo) of the same molecule?
The ka was 110000 M⁻¹ s⁻¹.

What about the kd ([3]; Human TNFα apo) of the same molecule?
Its kd is 0.00071 s⁻¹.

What about the “FACS staining of membrane-bound TNFα” value [4] of the same molecule?
The value was “only recognise TNF which has been pre-incubated with compound (1)”.

What about the “FACS staining of receptor-bound TNFα” value [5] of the same molecule?
The value was “only recognise TNFα which has been pre-incubated with compound (1)”.
